Results on one molecule are retold here after publication PMC4456664 (2015).

The target of the assay is BSA (Bos taurus, UniProt P02769). In words: ITC. Background: ITC needs no label: the signal is the heat of the interaction.
Chain of BSA (P02769 25-607): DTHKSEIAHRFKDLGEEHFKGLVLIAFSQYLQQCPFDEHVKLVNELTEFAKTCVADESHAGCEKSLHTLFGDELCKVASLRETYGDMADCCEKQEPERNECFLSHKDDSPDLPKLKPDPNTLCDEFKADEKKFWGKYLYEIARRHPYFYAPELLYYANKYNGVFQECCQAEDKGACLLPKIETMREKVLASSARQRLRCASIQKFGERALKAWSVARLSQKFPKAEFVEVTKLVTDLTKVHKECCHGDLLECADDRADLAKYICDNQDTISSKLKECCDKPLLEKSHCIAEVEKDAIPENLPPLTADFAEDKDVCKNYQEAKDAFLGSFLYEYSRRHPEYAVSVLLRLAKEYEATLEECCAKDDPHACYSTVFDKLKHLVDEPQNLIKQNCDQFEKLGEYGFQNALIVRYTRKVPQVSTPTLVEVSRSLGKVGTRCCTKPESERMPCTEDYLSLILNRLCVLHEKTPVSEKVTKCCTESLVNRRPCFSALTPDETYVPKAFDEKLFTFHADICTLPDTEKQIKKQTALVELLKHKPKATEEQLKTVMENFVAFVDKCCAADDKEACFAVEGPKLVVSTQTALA

B1: PYL10 (protein)
chain: MNGDETKKVESEYIKKHHRHELVESQCSSTLVKHIKAPLHLVWSIVRRFDEPQKYKPFISRCVVQGKKLEVGSVREVDLKSGLPATKSTEVLEILDDNEHILGIRIVGGDHRLKNYSSTISLHSETIDGKTGTLAIESFVVDVPEGNTKEETCFFVEALIQCNLNSLADVTERLQAESMEKKI
As usually defined, the Kd is a measure of binding affinity in units of concentration. A high value points to a looser complex. For the molecule B1, binding was put at a Kd of 3 µM.
